# Laboratory results as given in patent US20210071139A1.
# Target: TOX (UniProt Q66JW3)
# Assay: anti-TOX IP from EL4 nuclear extract, LC-MS/MS, MiST analysis
# Chain of TOX (Q66JW3 whole entry): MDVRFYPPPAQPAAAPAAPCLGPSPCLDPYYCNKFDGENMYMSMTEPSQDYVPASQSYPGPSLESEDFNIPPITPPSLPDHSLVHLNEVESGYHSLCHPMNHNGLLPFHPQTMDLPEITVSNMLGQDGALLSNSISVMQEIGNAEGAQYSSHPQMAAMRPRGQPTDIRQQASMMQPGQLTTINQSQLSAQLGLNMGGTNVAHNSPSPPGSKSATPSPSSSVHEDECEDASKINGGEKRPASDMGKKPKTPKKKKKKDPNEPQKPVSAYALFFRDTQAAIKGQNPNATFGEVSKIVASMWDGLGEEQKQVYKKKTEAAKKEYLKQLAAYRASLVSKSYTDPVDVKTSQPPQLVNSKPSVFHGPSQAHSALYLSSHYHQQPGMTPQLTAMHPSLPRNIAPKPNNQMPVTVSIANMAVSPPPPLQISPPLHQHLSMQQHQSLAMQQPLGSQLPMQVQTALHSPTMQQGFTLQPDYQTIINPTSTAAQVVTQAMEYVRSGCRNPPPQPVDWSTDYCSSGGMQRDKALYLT
Substance,Abundance,MiST Score,Reproducibility,Specificity
Acin1 (from UniProt Q9JIX8 1-1338),2.27e-05,0.77,0.612,0.848
Ap3b1 (from UniProt Q9Z1T1 1-1105),4.13e-06,0.778,0.696,0.821

# Target: TOX (UniProt Q66JW3)
# Assay: anti-TOX IP from EL4 cells, mass spectrometry, MiST analysis
Substance,Abundance,MiST Score,Reproducibility,Specificity
Aars (from UniProt Q8BGQ7 1-968) (enzyme),4.49e-06,0.827,0.459,1
Add3 (from UniProt Q9QYB5 2-706),3.22e-06,0.807,0.394,1
Ahnak,6.22e-06,0.812,0.497,0.961
Ap3d1 (from UniProt O54774 2-1199),1.02e-06,0.817,0.427,1
Baz1a (from UniProt O88379 1-1555),4.09e-07,0.825,0.454,1
Ckap5 (from UniProt A2AGT5 1-2032),1.02e-06,0.81,0.924,0.765
Cpsf3 (from UniProt Q9QXK7 2-684) (enzyme),1.17e-05,0.825,0.871,0.811
Ddx18 (from UniProt Q8K363 1-660) (enzyme),4.72e-05,0.822,0.986,0.756
Dnaja2 (from UniProt Q9QYJ0 1-409),0.000332,0.8,0.946,0.742
Dnmt1 (from UniProt P13864 1-1620) (enzyme),4.05e-06,0.814,0.929,0.77
Dst (from UniProt Q91ZU6 1-7393),1.97e-08,0.804,0.385,1
Ep400 (from UniProt Q8CHI8 1-3072),2.31e-06,0.825,0.451,1
Ipo4 (from UniProt Q8VI75 1-1082),1.65e-06,0.826,0.94,0.782
Isy1 (from UniProt Q69ZQ2 1-285),3.22e-05,0.811,0.856,0.797
LRWD1 (from UniProt Q8BUI3 1-648),9.87e-06,0.803,0.965,0.737
Lmnb1 (from UniProt P14733 2-585),1.67e-05,0.822,0.964,0.766
Lrrfip1 (from UniProt Q3UZ39 2-729),8.42e-06,0.817,0.996,0.743
Nmt1 (from UniProt O70310 1-496) (enzyme),6.96e-06,0.821,0.948,0.772
Nup98 (from UniProt Q6PFD9 1-880),5.87e-07,0.803,0.381,1
Otud4 (from UniProt B2RRE7 1-1107) (enzyme),9.24e-07,0.818,0.993,0.747
Parp2 (from UniProt O88554 1-559) (enzyme),2.87e-06,0.827,0.46,1
Pds5a (from UniProt Q6A026 1-1332),1.76e-06,0.824,0.865,0.813

Substance,Abundance,MiST Score,Reproducibility,Specificity
Pds5b (from UniProt Q4VA53 1-1446),2.47e-06,0.807,0.845,0.797
Ptpn11 (from UniProt P35235 2-593) (enzyme),4.22e-05,0.808,0.396,1
Rars (from UniProt Q9D0I9 1-660) (enzyme),4.81e-06,0.797,0.98,0.721
Rftn1 (from UniProt Q6A0D4 2-554),4.96e-06,0.8,0.37,1
Rpa2 (from UniProt Q62193 1-270),0.000292,0.814,0.977,0.747
Rpl14; Rpl14-ps1 (from UniProt Q9CR57 1-217),0.00405,0.797,0.997,0.714
Rps23 (from UniProt P62267 1-143),0.00479,0.807,0.997,0.728
Sfxn1 (from UniProt Q99JR1 2-322),3.71e-05,0.827,0.954,0.777
Srsf5 (from UniProt O35326 1-269),0.000505,0.807,0.996,0.729
Ssb (from UniProt P32067 1-415),3.74e-05,0.809,0.807,0.817
Stau1 (from UniProt Q9Z108 1-487),1.96e-05,0.825,0.951,0.776
Supt16; Supt16h (from UniProt Q920B9 2-1047),4.95e-06,0.818,0.8,0.833
Tbl1x (from UniProt Q9QXE7 2-527),5.34e-06,0.825,0.453,1
Tdrd3 (from UniProt Q91W18 1-743),8.62e-06,0.815,0.627,0.907
Tfip11 (from UniProt Q9ERA6 1-838),5.43e-06,0.826,0.972,0.767
Tpx2 (from UniProt A2APB8 1-745),1.91e-05,0.805,0.992,0.727
Tra2b (from UniProt P62996 2-288),3.65e-05,0.803,0.381,1
Wrnip1 (from UniProt Q91XU0 1-660),3.59e-06,0.812,0.41,1
Yars (from UniProt Q91WQ3 1-528) (enzyme),2.51e-06,0.802,0.379,1
Ythdf1 (from UniProt P59326 2-559),3.5e-05,0.811,0.833,0.809
Zc3h11a (from UniProt Q6NZF1 1-792),1.22e-05,0.801,0.957,0.737
